Reference: US8540999B2, “Allergenic proteins and peptides from Japanese cedar pollen” (Merck Patent GmbH, priority 1991, dated 2013)

Legend:
Cry j I reactive T cells = test: T cell proliferation assay, Cry j I primed T cell lines (Example 6); format: cell-based, human
Protocol: Viable cells were purified by LSM centrifugation and cultured in complete medium supplemented with 5 units recombinant human IL-2/ml and 5 units recombinant human IL-4/ml for up to three weeks until the cells no longer responded to lymphokines and were considered “rested”. The ability of the T cells to proliferate to selected peptides, recombinant Cry j I (rCry j I), purified native Cry j I, or recombinant Amb aI.1 (rAmb aI.1) or a positive control, phyto-hemaglutinin (PHA) was then assessed. For assay, 2×10^4 rested cells were restimulated in the presence of 2×10^4 autologous Epstein-Barr virus (EBV)-transformed B cells (prepared as described below) (gamma-irradiated with 25,000 RADS) with 2-50 μg/ml of selected peptides, Cry j I, purified native Cry j I or rAmb a I.1 or PHA, in a volume of 200 μl complete medium in duplicate or triplicate wells in 96-well round bottom plates for 2-4 days. […] Each well then received 1 μCi tritiated thymidine for 16-20 hours. The counts incorporated were collected onto glass fiber filter mats and processed for liquid scintillation counting. […] The titrations were used to optimize the dose of peptides in T cell assays. The maximum response in a titration of each peptide is expressed as the stimulation index (S.I.). The S.I. is the counts per minute (CPM) incorporated by cells in response to peptide, divided by the CPM incorporated by cells in medium only.
The above procedure was followed with a number of other patients. […] The bars represent the positivity index. Above each bar is the percent of positive responses with an S.I. of at least two to the peptide or protein in the group of patients tested. In parenthesis above each bar are the mean stimulation indices for each peptide or protein for the group of patients tested.
Autologous EBV-transformed cell lines were y-irradiated with 25,000 Rad and used as antigen presenting cells in secondary proliferation assays and secondary bulk stimulations. These EBV-transformed cell lines were made by incubating 5×10^6 PBL with 1 ml of B-59/8 Marmoset cell line (ATCC CRL1612, American Type Culture Collection, Rockville, Md.) conditioned medium in the presence of 1 μg/ml phorbol 12-myristate 13-acetate (PMA) at 37° C. for 60 minutes in 12×75 mm polypropylene round-bottom Falcon snap cap tubes (Becton Dickinson Labware, Lincoln Park, N.J.). These cells were then diluted to 1.25×10^6 cells/ml in RPMI-1640 as described above except supplemented with 10% heat-inactivated fetal bovine serum and cultured in 200 μl aliquots in flat bottom culture plates until visible colonies were detected. They were then transferred to larger wells until the cell lines were established.

allergic patient IgE [1] = test: Competition ELISA, wells coated with Japanese cedar pollen SPE; format: binding, human
Protocol: In the competition assay, ELISA wells were coated with Japanese cedar pollen SPE and then allergic patient IgE binding was measured in the presence of competing purified native Cry j I in solution. The source of allergic IgE in these assays was either the pool of plasma from 15 patients (denoted PHP) or seven individual plasma samples from patients with a Japanese cedar MAST score of 2.5 or greater. The competition assay using the pooled human plasma samples compares the competitive binding capacity of purified native Cry j I to Japanese cedar pollen SPE and an irrelevant allergen source, rye grass SPE. […] This assay was repeated with individual patients as a measure of the range of the IgE response within the allergic population.

allergic patient IgE [2] = test: Direct ELISA, IgE binding to rCry j I and Cry j I peptides (Example 8); parameters: species or system human; conditions: PHP (15 patients), FIG. 15
Protocol: The recombinant Cry j I protein (rCry j I), expressed in bacteria and then purified (as described in Example 5), has been examined for IgE reactivity. The first method applied to this examination was direct ELISA where wells were coated with the recombinant Cry j I and IgE binding was assayed on individual patients. FIG. 9 is the graphic representation of this direct ELISA.
To analyze IgE reactivity to selected Cry j I peptides a direct ELISA format was used. ELSIA wells were coated with 25 peptides derived from Cry j I and assayed for IgE binding. FIG. 15a and 15b are graphs of these binding results using PHP (15 patients) as the cedar pollen allergic IgE source. This pool of plasma was formulated for enrichment of IgE that could bind to denatured SPE (as determined by direct ELISA) and therefore increase the chance of reactivity toward the peptides.

human basophil = test: Histamine release assay; format: cell-based; conditions: one Japanese cedar pollen allergic patient, FIG. 11
Protocol: To determine whether a peptide which binds IgE results in the release of mediators, a histamine release assay can be performed using standard reagents and protocols obtained for example, from Amac, Inc. (Westbrook, Me.). Briefly, a buffered solution of a peptide to be tested is combined with an equal volume of whole heparinized blood from an allergic subject. After mixing and incubation, the cells are pelleted and the supernatants are processed an analyzed using a radioimmunoassay to determine the amount of histamine released.
A histamine release assay was performed on one Japanese cedar pollen allergic patient using Japanese cedar pollen SPE, purified native Cry j I and rCry j I as the added antigens. This assay is a measure of IgE reactivity through human basophil mediator release. […] Two possible explanations for this release by the rCry j I are: 1) specific reactivity with a very low proportion of the anti-Cry j I IgE capable of recognizing the recombinant form of Cry j I, or 2) non-specific release caused by low abundance of bacterial contaminants observed only at the highest antigen concentration. […] In addition, the data shown are from single data points at each protein concentration.

[3] = tested on: Cry j allergic patient plasma IgE; test: Cry j I peptide screen, direct ELISA for IgE binding (Example 12); parameters: species or system human; conditions: plasma pools PHP-A and PHP-D, FIGS. 22 and 23
Source text: To analyze IgE reactivity to the selected peptides discussed in example 11 and shown in FIG. 20, a direct ELISA format was used. ELISA wells were coated with the selected peptides derived from Cry j I and then assayed for IgE binding. FIGS. 22 and 23 are graphs of these binding results using two different pools of Cry j allergic patient plasma. Patient plasma pool A (denoted PHP-A) (FIG. 22) was formulated by mixing equal volumes of plasma from 22 patients that were all shown to be positive for direct IgE binding to native purified Cry j I by ELISA. The second pool (PHP-D) (FIG. 23) was formulated by the combination of equal plasma volumes from 8 patients that had IgE binding by direct ELISA to both native and denatured purified Cry j I. This pool was generated to increase the chance of detecting reactivity towards peptides. […] There was no detectable IgE binding reactivity to any of the peptides at any of the plasma concentrations used. To control for the presence of peptide coating the wells, mouse polyclonal antisera was generated to the peptides. […] The results of these assays are shown in FIG. 24, and indicate that peptides were coating the wells.

competition for IgE binding to coated Japanese cedar pollen SPE (allergic patient IgE [1]; pooled human plasma (PHP), 15 patients, FIG. 6): competes very well
competition for IgE binding to coated Japanese cedar pollen SPE (allergic patient IgE [1]; seven individual patients, FIG. 7): could be competed
IgE binding, direct ELISA (allergic patient IgE [2]): only specific IgE detected
IgE binding, direct ELISA [3]: direct binding
B1: purified native Cry j I: major allergen of Japanese cedar pollen, biochemically purified in the native form (protein)
chain: DNPIDSCWRGDSNWAQNRMKLADCAVGFGSSTMGGKGGDLYTVTNSDDDPVNPAPGTLRYGATRDRPLWIIFSGNMNIKLKMPMYIAGYKTFDGRGAQVYIGNGGPCVFIKRVSNVIIHGLYLYGCSTSVLGNVLINESFGVEPVHPQDGDALTLRTATNIWIDHNSFSNSSDGLVDVTLTSTGVTISNNLFFNHHKVMLLGHDDAYSDDKSMKVTVAFNQFGPNCGQRMPRARYGLVHVANNNYDPWTIYAIGGSSNPTILSEGNSFTAPNESYKKQVTIRIGCKTSSSCSNWVWQSTQDVFYNGAYFVSSGKYEGGNIYTKKEAFNVENGNATPQLTKNAGVLTCSLSKRC
T cell line response (Cry j I reactive T cells; panel of twenty-five patients, FIG. 14): All twenty-five T cell lines responded
T cell proliferative response (Cry j I reactive T cells; patient #999, FIG. 12): responds well
histamine release (human basophil): strong histamine release
